{"source": "patent US20180274043A1", "target": "human HER3 receptor (human) (UniProt P21860)", "assay": "cell-based or functional assay", "data": [{"substance": "neuregulin-1 (from UniProt Q02297 177-241) (ligand)", "values": [{"measurement": "fold induction of 6×JNK-Luc reporter activity at 100 ng/ml NRG1", "value": 4.2, "unit": "fold"}, {"measurement": "fold induction of JNK-Luc (3 copies of AP-1) reporter activity at 100 ng/ml NRG1", "value": 2.6, "unit": "fold"}]}]}
